Values joined by “and” are separate entries in the source; they are usually repeats but may differ in a detail not shown here. Equal entries are not always repeated.
Experiments:
[1] = target: T1, FcRn (Homo sapiens, UniProt P55899); assay: Relative FcRn binding by FcRn-HPLC; conditions: FcRn affinity column; for Retention Time: pH gradient 5.5 to 8.8 over 90 minutes, main peak; for Peak Width: peak width at 50% peak height
T1 construct: purchased Roche 09430857001
Protocol: IgG binding to neonatal Fc receptor (FcRn) is a key mechanism for antibody recycling and a determinant of antibody pharmacokinetics (PK). […] Antibody-A is an IgG1 mAb with L234A, L235A, D265S mutations to reduce FcγR and Clq binding and M252Y, S254T, and T256E mutations to modulate the antibody's clearance profile. The impact of these combined mutation sets was assessed by FcRn-HPLC. Stock antibody solutions were diluted to 1 mg/mL into 20 mM MES, 140 mM NaCl, pH5.5. An Agilent 1290 HPLC equipped with an FcRn Affinity Column Gen2 (Roche, Cat #09430857001) was pre-equilibrated with 20 mM MES, 140 mM NaCl, pH5.5 with a flow rate of 0.2mL/min. 20 μμL antibody injections were made followed by 10 minute column wash with 20 mM MES, 140 mM NaCl, pH5.5. Antibodies were then eluted by pH gradient elution into 20 mM Tris, 140 mM NaCl, pH8.8 over 90 minutes. Chromatograms were blank-subtracted to remove baseline drift.

[2] = target: leptin-LEPR interaction (Homo sapiens, UniProt P48357); assay: ELISA based competition binding assay of antibodies and leptin protein to LEPR
Chain of leptin-LEPR interaction (P48357 with tags, fused parts or gaps): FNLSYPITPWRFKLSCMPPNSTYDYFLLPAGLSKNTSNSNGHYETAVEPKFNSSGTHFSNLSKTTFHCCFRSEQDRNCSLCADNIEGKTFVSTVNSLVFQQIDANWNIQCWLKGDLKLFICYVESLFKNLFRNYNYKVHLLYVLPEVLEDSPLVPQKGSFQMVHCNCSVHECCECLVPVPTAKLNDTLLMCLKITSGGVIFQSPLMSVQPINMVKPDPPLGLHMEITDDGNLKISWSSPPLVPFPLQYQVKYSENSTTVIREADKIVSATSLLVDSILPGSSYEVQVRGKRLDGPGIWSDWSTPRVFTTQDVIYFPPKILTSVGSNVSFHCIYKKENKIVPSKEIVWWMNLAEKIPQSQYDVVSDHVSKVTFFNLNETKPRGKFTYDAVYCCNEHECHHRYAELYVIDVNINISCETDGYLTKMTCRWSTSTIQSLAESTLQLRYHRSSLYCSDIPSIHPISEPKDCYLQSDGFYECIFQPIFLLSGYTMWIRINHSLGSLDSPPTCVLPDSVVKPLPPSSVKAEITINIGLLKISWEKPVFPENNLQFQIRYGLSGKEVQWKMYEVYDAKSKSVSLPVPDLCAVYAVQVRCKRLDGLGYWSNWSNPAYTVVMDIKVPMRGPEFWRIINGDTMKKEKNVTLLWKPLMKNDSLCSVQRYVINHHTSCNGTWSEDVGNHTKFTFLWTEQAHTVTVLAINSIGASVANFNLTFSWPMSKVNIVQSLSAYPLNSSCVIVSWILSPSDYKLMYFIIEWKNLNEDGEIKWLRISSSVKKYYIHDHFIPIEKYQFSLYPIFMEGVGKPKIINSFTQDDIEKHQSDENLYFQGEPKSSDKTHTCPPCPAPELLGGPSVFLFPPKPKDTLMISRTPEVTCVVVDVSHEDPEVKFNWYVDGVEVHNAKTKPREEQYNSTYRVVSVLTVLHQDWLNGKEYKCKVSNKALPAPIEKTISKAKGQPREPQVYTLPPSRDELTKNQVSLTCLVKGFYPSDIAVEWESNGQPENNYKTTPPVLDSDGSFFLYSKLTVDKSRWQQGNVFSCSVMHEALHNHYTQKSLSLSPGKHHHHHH
Protocol: To test whether the binding of anti-LEPR antibodies to LEPR will compete with leptin-LEPR interaction, an ELISA based competition binding assay was conducted.
Recombinant LEPR extracellular domain fused to hlgG1-Fc (LEPR-Fc) (SEQ ID NO: 30) was diluted in Phosphate Buffered Solution (PBS, Gibco, #20012-027) and applied onto a 96-well Costar assay plate (Corning, #3690) at 5 μg/mL and 50 μL/well. The solution was incubated at 4° C. for 20 hours to allow sufficient protein coating. The plate was then rinsed 3 times with 160 μL/well of 1x wash buffer (R&D, #WA126, 25x), blocked for 1 hour at room temperature with Casein blocking solution (ThermoFisher, #37582), and rinsed by wash buffer 2 times. Serial concentrations of anti-LEPR antibodies (Antibodies A, B, and C) were then diluted in 60 μL of Casein blocking solution and added to each well. Serial concentrations of LEPR-Fc (SEQ ID NO:30) were used as positive control to compete with plate-bound receptor for leptin. Casein blocking solution was used as negative control. The plate was incubated with either anti-LEPR antibodies, positive or negative controls for 90 minutes at room temperature. Next, recombinant human leptin protein (R&D, #398-LP-05M) diluted in 20 μL Casein blocking buffer was added to each plate to a final concentration of 2 nM. The plate was then mixed for 30 seconds with gentle shaking followed by another 90 minutes of incubation at room temperature. The plate was rinsed 3 times with wash buffer. […] Data was obtained by a microplate reader with light absorbance set to 450 nm (OD450). Average OD450 readings in casein coated wells (without LEPR-Fc (SEQ ID NO: 30) coating) were subtracted from all raw OD450 readings to generate the normalized OD450 readings. The average normalized OD450 readings from negative controls (2 nM leptin incubated wells without any competing articles) was set as 100 percent (100%) binding. All normalized OD450 readings were compared to this OD450 reading and presented as percentages of binding. The top and bottom of dose response curve and IC50 was calculated using GraphPad Prism software.

T1 sequence (P55899 24-297 limits assumed): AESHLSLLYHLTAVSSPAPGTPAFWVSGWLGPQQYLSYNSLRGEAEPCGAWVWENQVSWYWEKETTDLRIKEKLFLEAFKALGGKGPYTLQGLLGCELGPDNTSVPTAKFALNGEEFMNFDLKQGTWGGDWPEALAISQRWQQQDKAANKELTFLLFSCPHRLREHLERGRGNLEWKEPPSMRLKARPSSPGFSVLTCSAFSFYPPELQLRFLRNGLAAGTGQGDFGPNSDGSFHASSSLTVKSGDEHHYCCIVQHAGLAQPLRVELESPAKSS
T1 sequence (P61769 21-119 partner): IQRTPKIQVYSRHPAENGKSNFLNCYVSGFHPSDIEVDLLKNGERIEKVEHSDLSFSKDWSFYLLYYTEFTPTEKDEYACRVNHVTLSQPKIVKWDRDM

Ustekinumab
Retention Time [1]: 69.4 min
Peak Width [1]: 1.9 min

Briakinumab
Retention Time [1]: 88.9 min
Peak Width [1]: 10 min and 10.0 min

hLEPR-TEV-hIgG1Fc: recombinant LEPR extracellular domain fused to hIgG1-Fc (SEQ ID NO: 30), positive control competing for leptin
Hill Slope ([2]; competition dose response curve): −1.07
Bottom (%) ([2]; percent leptin binding to plate-bound LEPR-Fc, 2 nM leptin, bottom of dose response curve): 6.076%
Top (%) ([2]; percent leptin binding to plate-bound LEPR-Fc, 2 nM leptin, top of dose response curve): 92.03%

— US20250289897A1, “LEPTIN RECEPTOR AGONISTIC ANTIBODY AS MONO OR COMBO THERAPIES TO TREAT OBESITY” (ELI LILLY AND COMPANY, priority 2024, published 2025)
